# B1: E3 ubiquitin-protein ligase SIAH1 (Homo sapiens), Q8IUQ4 (parent)
# chain: MSRQTATALPTGTSKCPPSQRVPALTGTTASNNDLASLFECPVCFDYVLPPILQCQSGHLVCSNCRPKLTCCPTCRGPLGSIRNLAMEKVANSVLFPCKYASSGCEITLPHTEKADHEELCEFRPYSCPCPGASCKWQGSLDAVMPHLMHQHKSITTLQGEDIVFLATDINLPGAVDWVMMQSCFGFHFMLVLEKQEKYDGHQQFFAIVQLIGTRKQAENFAYRLELNGHRRRLTWEATPRSIHEGIATAIMNSDCLVFDTSIAQLFAENGNLGINVTISMC
# partner: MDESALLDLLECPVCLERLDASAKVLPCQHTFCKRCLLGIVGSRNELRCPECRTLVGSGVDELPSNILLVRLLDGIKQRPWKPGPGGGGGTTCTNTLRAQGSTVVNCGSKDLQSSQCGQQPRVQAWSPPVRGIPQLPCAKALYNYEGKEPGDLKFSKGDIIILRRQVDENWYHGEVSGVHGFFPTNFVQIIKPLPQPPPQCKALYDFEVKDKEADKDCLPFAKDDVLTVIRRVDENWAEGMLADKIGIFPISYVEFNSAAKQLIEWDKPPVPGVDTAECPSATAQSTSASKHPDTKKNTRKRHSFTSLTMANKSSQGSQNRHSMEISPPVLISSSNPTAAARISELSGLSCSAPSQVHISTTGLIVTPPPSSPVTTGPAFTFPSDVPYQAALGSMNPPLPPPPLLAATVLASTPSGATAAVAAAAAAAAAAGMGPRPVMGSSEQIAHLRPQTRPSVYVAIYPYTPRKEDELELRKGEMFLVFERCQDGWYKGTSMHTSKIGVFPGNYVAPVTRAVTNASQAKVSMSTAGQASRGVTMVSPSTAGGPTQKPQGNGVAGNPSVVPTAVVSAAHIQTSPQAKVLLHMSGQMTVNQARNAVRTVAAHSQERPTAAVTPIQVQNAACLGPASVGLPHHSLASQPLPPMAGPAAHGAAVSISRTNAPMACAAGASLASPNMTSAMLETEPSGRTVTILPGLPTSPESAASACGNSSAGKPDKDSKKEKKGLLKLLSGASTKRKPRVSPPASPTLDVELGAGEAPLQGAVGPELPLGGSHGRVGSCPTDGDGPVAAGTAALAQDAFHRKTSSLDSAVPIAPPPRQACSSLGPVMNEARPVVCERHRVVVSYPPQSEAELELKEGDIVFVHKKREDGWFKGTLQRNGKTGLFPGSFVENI
# Variants of: B1
# Conditions: with sh3r1_mouse Sh3rf1, Q69ZI1
row,effect of a mutation on the interaction,Variant
1,decreasing interaction,MSRQTATALPTGTSKCPPSQRVPALTGTTASNNDLASLFESPVSFDYVLPPILQCQSGHLVCSNCRPKLTCCPTCRGPLGSIRNLAMEKVANSVLFPCKYASSGCEITLPHTEKADHEELCEFRPYSCPCPGASCKWQGSLDAVMPHLMHQHKSITTLQGEDIVFLATDINLPGAVDWVMMQSCFGFHFMLVLEKQEKYDGHQQFFAIVQLIGTRKQAENFAYRLELNGHRRRLTWEATPRSIHEGIATAIMNSDCLVFDTSIAQLFAENGNLGINVTISMC [C41S;C44S]

# From IntAct's records for PubMed 16230351
